Data taken from article PMC3589475, “Large-Scale Functional Purification of Recombinant HIV-1 Capsid” (PLoS ONE, 2013).

Tests used:
[1] = target: HIV-1 capsid (CA) (Human immunodeficiency virus 1) (UniProt O93182); details: cited from earlier work
[2] = target: quadruple mutant (A14C/E45C/W184A/M185A) CA monomer (CA 4Mu) (HIV-1 (NL4-3 strain)); assay: AUC; sedimentation velocity, cross-linked CA 4Mu hexamer at 4.13, 8.25 and 16.5 µM (as monomers), 50 mM sodium phosphate pH 7.5, 25°C, 45,000 rpm, no reducing agent
[3] = target: wild-type HIV-1 capsid protein (WT CA) (HIV-1 (pLAI.2)) (UniProt P03348); assay: AUC; sedimentation velocity, WT CA at 0.94, 1.88, 3.75 and 7.5 µM, 50 mM sodium phosphate pH 7.5, 25°C, 45,000 rpm; monomer to dimer, at high protein concentration

In the case of HIV-1 capsid (CA) (from UniProt O93182), the Kd [1] is listed as 14 µM.

Work on “quadruple mutant (A14C/E45C/W184A/M185A) CA monomer (CA 4Mu) (natural protein)” yielded a percent in hexameric form [2] of 94% and a stoichiometry N [2] of 6.

Work on “wild-type HIV-1 capsid protein (WT CA) (from UniProt P03348 133-363) (natural protein)” yielded a stoichiometry N [3] of 2.
